Assay results: patent US20090148905A1 (published 2009)

B1: PascoL-EPKSC-474 (bispecific antibody, human IgG1, kappa)
heavy: not shown
light: DIVLTQSPSSLSASVGDRVTITCKASQSVDYDGDSYMNWYQQKPGKAPKLLIYAASNLESGIPSRFSGSGSGTDFTFTISSLQPEDIATYYCQQSNEDPPTFGQGTKVEIKRTVAAPSVFIFPPSDEQLKSGTASVVCLLNNFYPREAKVQWKVDNALQSGNSQESVTEQDSKDSTYSLSSTLTLSKADYEKHKVYACEVTHQGLSSPVTKSFNRGECEPKSCDKTHTCPPCPGSGVQLLESGGGLVQPGGSLRLSCAASGFTFAWYDMGWVRQAPGKGLEWVSSIDWHGEVTYYADSVKGRFTISRDNSKNTLYLQMNSLRAEDTAVYYCATAEDEPGYDYWGQGTLVTVSS
B2: Anti-human IL-13 monoclonal antibody (also known as 586) (antibody, human IgG1, kappa)
heavy: not shown
light: DIVMTQSPLSLPVTPGEPASISCRSSQNIVHINGNTYLEWYLQKPGQSPRLLIYKISDRFSGVPDRFSGSGSGTDFTLKISRVEADDVGIYYCFQGSHVPWTFGQGTKLEIKRTVAAPSVFIFPPSDEQLKSGTASVVCLLNNFYPREAKVQWKVDNALQSGNSQESVTEQDSKDSTYSLSSTLTLSKADYEKHKVYACEVTHQGLSSPVTKSFNRGEC
notes: humanised, human IgG1/kappa; also called Anti-human IL-13 mAb; anti-IL13 mAb

Columns and labels:
[1] = biological target: T1, human IL-4 (human, UniProt P05112 25-153); test: Biacore
T1 construct: E. coli-expressed, made and purified at GSK; also called rhIL-4; recombinant E. coli-expressed human IL-4
T1 sequence: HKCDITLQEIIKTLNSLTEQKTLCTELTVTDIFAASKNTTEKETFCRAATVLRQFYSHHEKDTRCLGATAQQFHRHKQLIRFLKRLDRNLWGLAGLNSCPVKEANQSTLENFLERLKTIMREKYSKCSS

[2] = biological target: T2, human IL-13 (human, UniProt P35225 35-146)
T2 construct: E. coli-expressed, made and purified at GSK; also called rhIL-13; recombinant E. coli-expressed human IL-13

Binder | fold less potent than Pascolizumab [1] [fold] | Kd [2] [nM]
B1 | ~2 | 
B2 |  | 0.3
